{"source": "patent US20210363204A1", "assay_in_all_cases": "cell-based or functional assay", "key": {"human Nav1.5 (human)": {"molecular_target": "human Nav1.5 (human) (UniProt Q14524)"}, "human Nav1.7 (human)": {"molecular_target": "human Nav1.7 (human) (UniProt Q15858)"}, "human Nav1.6 (human)": {"molecular_target": "human Nav1.6 (human) (UniProt Q9UQD0)"}}}
{"substance": "recombinant Protoxin-II NV1D12 (peptide)", "values": [{"measurement": "hNav1.5 QPatch IC50", "setting": "human Nav1.5 (human)", "value": "> 1000", "unit": "nM"}]}
{"substance": "wild type Protoxin-II (peptide)", "values": [{"measurement": "IC50, FLIPR Tetra membrane depolarization assay", "setting": "human Nav1.7 (human)", "value": 4, "unit": "nM"}]}
{"substance": "recombinant Protoxin-II (peptide)", "values": [{"measurement": "IC50, QPatch electrophysiology assay", "setting": "human Nav1.6 (human)", "value": "6.2e-08", "unit": "M"}, {"measurement": "ratio of IC50 for Nav1.6 to IC50 for Nav1.7, QPatch", "setting": "human Nav1.6 (human)", "value": 28, "unit": "fold"}]}
